# Reference: US20100135987A1
# Several values for one entry are separate records, joined by “and”; a condition that tells them apart may be missing. Equal values may be shown once.
# Legend:
# [1] = target: Protein A (ligand of MabSelect resin, GE Healthcare) (UniProt P38507); test: dynamic binding capacity of MabSelect column at 5% breakthrough, load at 300 cm/hr
# [2] = target: Protein A (ligand of MabSelect resin, GE Healthcare) (UniProt P38507); test: dynamic binding capacity of MabSelect column at 5% breakthrough, load at 300 cm/hr, average of Exp. 1 and 2
# [3] = target: Protein A (ligand of MabSelect resin, GE Healthcare) (UniProt P38507); test: dynamic binding capacity of MabSelect column at 5% breakthrough, dual-flow rate load, average of Exp. 3 and 4
# [4] = target: Protein A (ligand of MabSelect resin, GE Healthcare) (UniProt P38507); test: dynamic binding capacity of MabSelect column at 5% breakthrough, 300 cm/hr to 35 mg Ab/mL resin, then 150 cm/hr
substance,measurement,setting,value
anti-IL-12 antibody (ABT-874),DBC at 5% BT (mg Ab/mL resin),[1],43.7 and 44.9
same,DBC at 5% BT (mg Ab/mL resin),[2],44.3
same,DBC at 5% BT (mg Ab/mL resin),[3],51.7
same,DBC at 5% BT (mg Ab/mL resin),[4],51.6 and 51.7
